Assay results as given in the RNAGym collection of RNA variant scans (doi:10.1093/nar/gkz1192).

B1: CPEB3 Ribozyme (parent)
chain: UAACAGGGGGCCACAGCAGAAGCGUUCACGUCGCAGCCCCUGUCAGAUUCUGGUGAAUCUGCGAAUUCUGCUGUAUAUCUC

Variants of: B1
Assay: self-cleavage, relative activity (ratio to wild type); higher = more cleavage; in vitro, sequencing
Summary of the method: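 Relative activity compares each variant's cleaved/total read fraction with that of the unmutated ribozyme. To get these fractions, barcoded CPEB3 ribozyme libraries from rounds of error-prone PCR were transcribed with T7 RNA polymerase for 5 hours at 37°C and then given 15 min of DNase I treatment before EDTA was added. The RNAs were reverse transcribed with template switching and sequenced on Illumina, and DNA sequencing linked barcodes to variants. A minimum of 5 reads applied, and three batches were averaged.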
With A3U G22A the self-cleavage was 0.45.
In the case of A3U G22U, the self-cleavage is reported as 0.32.
C4U U60G gave a self-cleavage of 0.86.
For C4U U60A, the self-cleavage was 0.95.
Work on C4U U60C yielded a self-cleavage of 0.75.
C4U A65G showed a self-cleavage of 0.43.
Variant A3U G8A has a self-cleavage of 0.2.
Work on A5C A13G yielded a self-cleavage of 1.07.
In the case of A5C A13U, the self-cleavage is reported as 1.22.
Work on A3U A21U yielded a self-cleavage of 0.56.
In the case of A3U A21G, the self-cleavage is reported as 0.79.
C4A U67A showed a self-cleavage of 1.
Variant C4A U67C has a self-cleavage of 0.44.
Work on C4U A28G yielded a self-cleavage of 1.03.
With C4U A28U the self-cleavage was 1.08.
C4U A13C showed a self-cleavage of 1.21.
For C4A A47G, the self-cleavage was 1.12.
In the case of C4U U49C, the self-cleavage is reported as 0.69.
Work on C4G G36U yielded a self-cleavage of 0.28.
Work on C4U C37U yielded a self-cleavage of 0.91.
Work on C4U C37G yielded a self-cleavage of 0.9.
C4G U60C showed a self-cleavage of 0.68.
With C4U A35U the self-cleavage was 0.81.
With C4U A35G the self-cleavage was 1.29.
With A3U G36A the self-cleavage was 0.32.
A3G U58A showed a self-cleavage of 0.43.
Variant A3G U58C has a self-cleavage of 0.54.
For A3G U58G, the self-cleavage was 0.39.
A5C A47G gave a self-cleavage of 0.78.
With A5C A47U the self-cleavage was 0.53.
C4A G33U showed a self-cleavage of 0.12.
For C4U U31C, the self-cleavage was 1.11.
C4U U31A gave a self-cleavage of 0.82.
C4A U26C showed a self-cleavage of 1.21.
For C4U U66C, the self-cleavage was 0.59.
Variant A3U C11G has a self-cleavage of 0.4.
C4A U25C showed a self-cleavage of 0.52.
For C4G A21G, the self-cleavage was 1.14.
Variant A3G U67A has a self-cleavage of 0.52.
With A3G U67G the self-cleavage was 0.37.
A3G U67C gave a self-cleavage of 0.33.
With A3U C4A the self-cleavage was 1.22.
Variant A3U C4U has a self-cleavage of 1.17.
In the case of A3U G46A, the self-cleavage is reported as 0.54.
In the case of A3G G73A, the self-cleavage is reported as 1.22.
Variant A3G U76C has a self-cleavage of 1.15.
A3G U76A gave a self-cleavage of 1.23.
A3U C32G gave a self-cleavage of 0.47.
In the case of A3G U60C, the self-cleavage is reported as 0.52.
A3G U60A showed a self-cleavage of 0.47.
Work on A3G U60G yielded a self-cleavage of 0.45.
Variant A3U A47U has a self-cleavage of 0.71.
Work on A3U A47G yielded a self-cleavage of 1.17.
A3U A47C showed a self-cleavage of 0.69.
C4A U69A gave a self-cleavage of 0.68.
For C4G U41A, the self-cleavage was 0.5.
For C4G U41C, the self-cleavage was 1.1.
In the case of A3U C68A, the self-cleavage is reported as 0.44.
With A3U C68G the self-cleavage was 0.44.
In the case of C4A U72A, the self-cleavage is reported as 0.42.
Work on C4A U72C yielded a self-cleavage of 1.22.
C4U G42A gave a self-cleavage of 0.32.
Variant A3U C59A has a self-cleavage of 0.51.
In the case of A3U C59U, the self-cleavage is reported as 0.66.
For C4A U41A, the self-cleavage was 0.41.
C4A C79G showed a self-cleavage of 1.25.
A3U C29U showed a self-cleavage of 0.71.
With A3U U67A the self-cleavage was 0.75.
A3U U67C showed a self-cleavage of 0.3.
Variant A3U U60C has a self-cleavage of 0.59.
A3U U60A showed a self-cleavage of 0.19.
Work on A3U G61C yielded a self-cleavage of 0.5.
With A3U G61A the self-cleavage was 1.01.
For A3U U72C, the self-cleavage was 1.12.
A3U U72G showed a self-cleavage of 1.09.
With A3U U72A the self-cleavage was 1.
Work on A3U G19U yielded a self-cleavage of 0.4.
Work on A5C yielded a self-cleavage of 0.98.
Variant C4A U60A has a self-cleavage of 0.89.
In the case of A3U A18U, the self-cleavage is reported as 0.56.
With A3U A18G the self-cleavage was 0.8.
For C4A G10A, the self-cleavage was 0.59.
With A3U A5G the self-cleavage was 0.79.
A3U A5U gave a self-cleavage of 1.18.
For C4U A45G, the self-cleavage was 1.25.
With C4U A45U the self-cleavage was 0.47.
In the case of A3U C40A, the self-cleavage is reported as 0.54.
A3U A15U showed a self-cleavage of 1.06.
For A3U A15G, the self-cleavage was 0.83.
Work on C4G U31C yielded a self-cleavage of 1.17.
For C4U U78C, the self-cleavage was 1.14.
C4U U78A showed a self-cleavage of 0.9.
Variant A3U U25A has a self-cleavage of 0.29.
A3U U25C gave a self-cleavage of 0.34.
In the case of C4A U78C, the self-cleavage is reported as 0.74.
C4U C29U showed a self-cleavage of 0.72.
In the case of A3U G52A, the self-cleavage is reported as 1.1.
Variant A3U G9C has a self-cleavage of 0.25.
For A3U G9A, the self-cleavage was 0.58.
In the case of A3U A35G, the self-cleavage is reported as 1.28.
Variant A3U A35U has a self-cleavage of 0.77.
A3G U31G showed a self-cleavage of 0.76.
A3G U31C showed a self-cleavage of 0.84.
For A3G U31A, the self-cleavage was 0.61.
A3G G70A showed a self-cleavage of 0.69.
C4A A20G showed a self-cleavage of 1.11.
C4U U54A gave a self-cleavage of 1.18.
With C4U U54C the self-cleavage was 1.15.
A3U G42U showed a self-cleavage of 0.16.
Work on C4U U67A yielded a self-cleavage of 0.76.
C4U U67C showed a self-cleavage of 0.42.
With C4U G10A the self-cleavage was 0.63.
With C4U G10U the self-cleavage was 0.25.
A3U U58C gave a self-cleavage of 0.54.
A3U U58A showed a self-cleavage of 0.39.
Variant A3G U48C has a self-cleavage of 0.61.
A3G U48G gave a self-cleavage of 0.54.
A3G U48A showed a self-cleavage of 0.37.
Variant A3G U49A has a self-cleavage of 0.69.
Work on A3G U49C yielded a self-cleavage of 0.49.
C4U U26A gave a self-cleavage of 1.13.
Variant C4U U26C has a self-cleavage of 0.88.
A3U U69C showed a self-cleavage of 0.69.
In the case of A3U U69A, the self-cleavage is reported as 0.54.
A3U U76G showed a self-cleavage of 1.13.
For A3U U78G, the self-cleavage was 1.2.
A3U U78C showed a self-cleavage of 0.9.
A3U G33U gave a self-cleavage of 0.42.
A3U G33A showed a self-cleavage of 0.16.
For A5C A64G, the self-cleavage was 1.
In the case of C4G U66A, the self-cleavage is reported as 0.79.
For C4U U51A, the self-cleavage was 0.98.
Work on C4U U51C yielded a self-cleavage of 1.16.
Work on C4U C23G yielded a self-cleavage of 0.53.
Variant C4G U72A has a self-cleavage of 1.13.
Work on A3U C34U yielded a self-cleavage of 0.51.
A3U U54C gave a self-cleavage of 1.04.
Variant A3U U54A has a self-cleavage of 1.19.
Variant A3G U66A has a self-cleavage of 0.64.
Variant A3G U66C has a self-cleavage of 0.4.
For A3G U66G, the self-cleavage was 0.62.
With C4U U41A the self-cleavage was 0.48.
In the case of C4U U41C, the self-cleavage is reported as 1.07.
Variant C4U C38A has a self-cleavage of 0.54.
In the case of A3U A77U, the self-cleavage is reported as 1.25.
A3U A77G showed a self-cleavage of 1.04.
For C4G U26C, the self-cleavage was 0.96.
C4G U26A showed a self-cleavage of 1.19.
A3G U41C showed a self-cleavage of 0.98.
A3G U41A gave a self-cleavage of 0.3.
For A3G U41G, the self-cleavage was 0.17.
In the case of C4U A18U, the self-cleavage is reported as 0.73.
With C4G U51A the self-cleavage was 1.15.
C4G U51C gave a self-cleavage of 1.12.
Variant A3U A28G has a self-cleavage of 0.88.
Work on A3U A28C yielded a self-cleavage of 0.91.
Work on A3U A28U yielded a self-cleavage of 1.13.
A3U U31A showed a self-cleavage of 0.55.
For A3U U31G, the self-cleavage was 1.01.
Variant A3U U31C has a self-cleavage of 1.01.
Variant C4A U76A has a self-cleavage of 1.2.
In the case of C4U C17U, the self-cleavage is reported as 1.05.
A3U G6A showed a self-cleavage of 0.62.
For A3U G6U, the self-cleavage was 0.59.
In the case of A3U A64U, the self-cleavage is reported as 0.69.
With A3U A64G the self-cleavage was 1.06.
A5C A21G showed a self-cleavage of 0.69.
